Results on one molecule are retold here after paper PMC6433865, “The cochaperone CHIP marks Hsp70- and Hsp90-bound substrates for degradation through a very flexible mechanism” (Scientific Reports, 2019).

The target in one assay is T1, Hsp90 (human, UniProt P07900 1-732).
T1 construct: Homodimer; also called hHsp90; source: E. coli, induced at 30 °C (4 h), purified (Ni-NTA, Superdex 200)
In words: negative-stain electron microscopy, 3D reconstruction; complexes stabilised and isolated by GraFix (10-30% glycerol gradient, 0.15% glutaraldehyde), stained with 2% uranyl acetate, JEOL JEM1010 at 80 kV; atomic structures docked into 19-26 Å volumes. As to conditions: both partners purified.

For a further assay, the target named is T2, Hsp70 (human (by the printed Entrez Gene code), UniProt P0DMV8 1-641).
T2 construct: Hsp70, Entrez Gene code 3303, cloned in pQE-30; Removal of the His tag is told only for CHIP, UbcH5a, Bag1s and p53DBD, not for Hsp70; source: E. coli, expressed at 16 °C overnight, purified (Ni-NTA, Superdex 200)
T2 sequence (P0DMV8 whole entry): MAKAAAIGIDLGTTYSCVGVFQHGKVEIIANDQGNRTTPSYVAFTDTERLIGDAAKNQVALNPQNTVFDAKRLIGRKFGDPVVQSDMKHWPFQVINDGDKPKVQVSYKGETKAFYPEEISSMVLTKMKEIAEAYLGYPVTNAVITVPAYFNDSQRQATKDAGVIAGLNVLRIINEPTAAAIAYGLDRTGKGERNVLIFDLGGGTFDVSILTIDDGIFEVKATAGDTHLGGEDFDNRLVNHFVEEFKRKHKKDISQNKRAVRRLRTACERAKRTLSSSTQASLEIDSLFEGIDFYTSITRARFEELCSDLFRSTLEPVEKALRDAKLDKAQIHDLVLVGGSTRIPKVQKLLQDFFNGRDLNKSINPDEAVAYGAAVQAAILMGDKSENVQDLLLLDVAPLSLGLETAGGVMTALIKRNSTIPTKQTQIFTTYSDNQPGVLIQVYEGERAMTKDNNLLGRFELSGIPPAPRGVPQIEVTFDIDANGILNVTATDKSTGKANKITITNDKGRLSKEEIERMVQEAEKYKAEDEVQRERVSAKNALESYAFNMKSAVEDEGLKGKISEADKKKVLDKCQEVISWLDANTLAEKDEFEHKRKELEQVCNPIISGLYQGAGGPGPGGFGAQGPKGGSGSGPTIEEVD
In words: cryo-EM structure; ternary complexes after GraFix, vitrified; Titan Krios 300 kV (Hsp70:p53-TMGST:CHIP, 15 Å) or Talos Arctica 200 kV (Hsp90:p53-TMGST:CHIP, 13 Å); atomic structures docked. As to conditions: both partners purified.

B1: C terminus of Hsc70-interacting protein (CHIP) (enzyme, human, UniProt Q9UNE7 1-303, looked up)
chain: MKGKEEKEGGARLGAGGGSPEKSPSAQELKEQGNRLFVGRKYPEAAACYGRAITRNPLVAVYYTNRALCYLKMQQHEQALADCRRALELDGQSVKAHFFLGQCQLEMESYDEAIANLQRAYSLAKEQRLNFGDDIPSALRIAKKKRWNSIEERRIHQESELHSYLSRLIAAERERELEECQRNHEGDEDDSHVRAQQACIEAKHDKYMADMDELFSQVDEKRKKRDIPDYLCGKISFELMREPCITPSGITYDRKDIEEHLQRVGHFDPVTRSPLTQEQLIPNLAMKEVIDAFISENGWVEDY
notes: human CHIP (hCHIP), Entrez Gene code 10273, cloned in pPROEX HTa; Homodimer, seen as an asymmetric triangular dimer in all reconstructions; also called hCHIP; source: E. coli, induced at 30 °C (4 h), purified (Ni-NTA, TEV cleavage, second Ni-NTA, Superdex 200)
As to B1, the binding result with Hsp90 and with Hsp70 was “binds” each time.
